Biological target: R499D-quad-PDE4D5
Assay: yeast two-hybrid, quantitative β-galactosidase assay
Details: parent: est. 18, read off a plot

Substance: PDE4D5 (wild-type, full-length; "long") (from UniProt Q08499-6) binder:N174A; binder:N175A; target:R173A; target:N174A; target:N175A; target:E228A; target:T229A; target:L230A; target:L306A; target:M307A; target:H308A; target:K323A; target:T324A; target:E325A; target:R499D
- response (bar labelled DD1 sequence RAA): 7.1 arbitrary

Substance: PDE4D5 (wild-type, full-length; "long") (from UniProt Q08499-6) binder:N174A; target:R173A; target:N174A; target:N175A; target:E228A; target:T229A; target:L230A; target:L306A; target:M307A; target:H308A; target:K323A; target:T324A; target:E325A; target:R499D
- response (bar labelled DD1 sequence RAN): 1.9 arbitrary

Substance: PDE4D5 (wild-type, full-length; "long") (from UniProt Q08499-6) binder:N175A; target:R173A; target:N174A; target:N175A; target:E228A; target:T229A; target:L230A; target:L306A; target:M307A; target:H308A; target:K323A; target:T324A; target:E325A; target:R499D
- response (bar labelled DD1 sequence RNA): 5.1 arbitrary

Substance: PDE4D5 (wild-type, full-length; "long") (from UniProt Q08499-6) binder:R173A; binder:N174A; binder:N175A; target:R173A; target:N174A; target:N175A; target:E228A; target:T229A; target:L230A; target:L306A; target:M307A; target:H308A; target:K323A; target:T324A; target:E325A; target:R499D
- response (bar labelled DD1 sequence AAA): 1.1 arbitrary

Substance: PDE4D5 (wild-type, full-length; "long") (from UniProt Q08499-6) binder:R173A; binder:N175A; target:R173A; target:N174A; target:N175A; target:E228A; target:T229A; target:L230A; target:L306A; target:M307A; target:H308A; target:K323A; target:T324A; target:E325A; target:R499D
- response (bar labelled DD1 sequence ANA): 0.9 arbitrary

Substance: PDE4D5 (wild-type, full-length; "long") (from UniProt Q08499-6) binder:R173A; target:R173A; target:N174A; target:N175A; target:E228A; target:T229A; target:L230A; target:L306A; target:M307A; target:H308A; target:K323A; target:T324A; target:E325A; target:R499D
- response (bar labelled DD1 sequence ANN): 5.4 arbitrary
